This series in a line: self-splicing fitness, log relative to wild type (ln ratio); higher = more splicing; Tetrahymena group I intron in knt gene, E. coli kanamycin selection, DiMSum; sequences stand for … in CUCUCU…GGAGGGAAAAGUUAUCAGGCAUGCACCUGGUAGCUAGUCUUUAAACCAAUAGAUUGCAUCGGUUUAAAAGGCAAGACCGUCAAAUUGCGGGAAAGGGGUCAACAGCCGUUCAGUACCAAGUCUCAGGGGAAACUUUGAGAUGGCCUUGCAAAGGGUAUGGUAAUAAGCUGACGGACAUGGUCCUAACCACGCAGCCAAGUCCUAAGUCAACAGAUCUUCUGUUGAUAUGGAUGCAGUUCACAGACUAAAUGUCGGUCGGGGAAGAUGUAUUCUUCUCAUAAGAUAUAGUCGGACCUCUCCUUAAUGGGAGCUAGCGGAUGAAGUGAUGCAACACUGGAGCCGCUGGGAACUAAUUUGUAUGCGAAAGUAUAUUGAUUAGUUUUGGAGUACUCGUGGUCG
In a few lines: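 Six replicate transformations of E. coli BL21(DE3) with a pET-22b(+) library were grown overnight at 37°C or 30°C. The library randomised all eight P1ex-region intron nucleotides, the intron lying in the knt kanamycin-resistance gene, and plates were LB agar with or without 25 μg/mL kanamycin plus 100 μg/mL carbenicillin, 50 μM IPTG and 0.2% rhamnose. Pooled colonies were amplicon-sequenced on an Illumina HiSeq 2500, and fitness is the DiMSum error-weighted combination of wild-type-normalised replicate fold changes, kanamycin versus none.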

± gives the uncertainty stated by the source.

For the sequence AGCAAGCAAUAUUACGGACC, the “self-splicing fitness (ln)” value is 0.36 ± 0.2 (30 °C) and -0.517 ± 0.22 (37 °C).

As for GGUGAGCAAUAUUACGAUUC, the “self-splicing fitness (ln)” value runs as follows: (30 °C) -0.904 ± 0.089; (37 °C) 0.137 ± 0.11.

For the sequence UUGAAGCAAUAUUACGGUAU, the “self-splicing fitness (ln)” value (30 °C) was -2.49 ± 0.11 and the “self-splicing fitness (ln)” value (37 °C) was -1.5 ± 0.18.

For GCGCAGCAAUAUUACGUGUU, the “self-splicing fitness (ln)” value is -1.06 ± 0.075 (30 °C) and -0.857 ± 0.092 (37 °C).

Consider AUAUAGCAAUAUUACGUCCA, for which the “self-splicing fitness (ln)” value is -1.87 ± 0.34 (30 °C) and -0.0483 ± 0.29 (37 °C).

With CUCAAGCAAUAUUACGCCAA, the “self-splicing fitness (ln)” value reads like this: (30 °C) -3.55 ± 0.33; (37 °C) -2.37 ± 0.31.

In the case of UCCUAGCAAUAUUACGUGAG, the “self-splicing fitness (ln)” value reads like this: (30 °C) -2.64 ± 0.14; (37 °C) -1.94 ± 0.17.

As for GAUCAGCAAUAUUACGAGGC, the “self-splicing fitness (ln)” value (37 °C) is -1.92 ± 0.23.

With CCGCAGCAAUAUUACGUAAU, the “self-splicing fitness (ln)” value reads like this: (30 °C) -3.78 ± 0.15; (37 °C) -2.3 ± 0.19.

In the case of GCCUAGCAAUAUUACGGUUG, the “self-splicing fitness (ln)” value was -3.8 ± 0.14 (30 °C) and -1.62 ± 0.11 (37 °C).

Turning to CAUAAGCAAUAUUACGGCCA, the “self-splicing fitness (ln)” value was -2.38 ± 0.26 (30 °C) and -2.62 ± 0.29 (37 °C).

With UAAUAGCAAUAUUACGUCUC, the “self-splicing fitness (ln)” value (30 °C) is -3.41 ± 0.26.

As for UACUAGCAAUAUUACGGUCG, the “self-splicing fitness (ln)” value reads like this: (30 °C) -0.0757 ± 0.12; (37 °C) 0.338 ± 0.16.

Take UUCGAGCAAUAUUACGCGUU: the “self-splicing fitness (ln)” value by setting is: (30 °C) -1.87 ± 0.22; (37 °C) -1.88 ± 0.27.

As for UUCAAGCAAUAUUACGUUGA, the “self-splicing fitness (ln)” value (30 °C) is -2.77 ± 0.21 and the “self-splicing fitness (ln)” value (37 °C) is -2.7 ± 0.21.

Consider UGGCAGCAAUAUUACGACGA, for which the “self-splicing fitness (ln)” value (30 °C) was -0.192 ± 0.12 and the “self-splicing fitness (ln)” value (37 °C) was -0.159 ± 0.14.

As for UGCGAGCAAUAUUACGGUCA, the “self-splicing fitness (ln)” value was -0.764 ± 0.071 (30 °C) and -0.397 ± 0.077 (37 °C).

CCCUAGCAAUAUUACGGCUA: the “self-splicing fitness (ln)” value by setting is: (30 °C) -2.53 ± 0.17; (37 °C) -3.13 ± 0.31.

Take CCUAAGCAAUAUUACGGAGA: the “self-splicing fitness (ln)” value (37 °C) is -1.46 ± 0.22.

UUGAAGCAAUAUUACGAGCG: the “self-splicing fitness (ln)” value runs as follows: (30 °C) -0.107 ± 0.089; (37 °C) 0.65 ± 0.14.

For CCAUAGCAAUAUUACGUAAG, the “self-splicing fitness (ln)” value runs as follows: (30 °C) -0.421 ± 0.055; (37 °C) -0.575 ± 0.07.

As for UCGGAGCAAUAUUACGCUAA, the “self-splicing fitness (ln)” value (30 °C) is -2.18 ± 0.35.

Take GGUGAGCAAUAUUACGAAGU: the “self-splicing fitness (ln)” value reads like this: (30 °C) -2.25 ± 0.23; (37 °C) -1.67 ± 0.35.

GCGAAGCAAUAUUACGGGGG: the “self-splicing fitness (ln)” value (30 °C) is -2.43 ± 0.24 and the “self-splicing fitness (ln)” value (37 °C) is -2.48 ± 0.34.

Consider UUUCAGCAAUAUUACGGCUA, for which the “self-splicing fitness (ln)” value is 0.189 ± 0.14 (30 °C) and 0.336 ± 0.12 (37 °C).

As to CCCAAGCAAUAUUACGGUAC, the “self-splicing fitness (ln)” value runs as follows: (30 °C) -4.14 ± 0.23; (37 °C) -2.71 ± 0.17.

As to AGGAAGCAAUAUUACGGUGU, the “self-splicing fitness (ln)” value by setting is: (30 °C) -3.33 ± 0.16; (37 °C) -1.48 ± 0.1.

With AAUAAGCAAUAUUACGGGGG, the “self-splicing fitness (ln)” value (30 °C) was -2.91 ± 0.19 and the “self-splicing fitness (ln)” value (37 °C) was -2.75 ± 0.21.

For UGACAGCAAUAUUACGCCAU, the “self-splicing fitness (ln)” value (30 °C) was -3.25 ± 0.29 and the “self-splicing fitness (ln)” value (37 °C) is -1.51 ± 0.26.

With CCGCAGCAAUAUUACGUUGC, the “self-splicing fitness (ln)” value by setting is: (30 °C) -3.32 ± 0.14; (37 °C) -2.7 ± 0.21.

With CUGGAGCAAUAUUACGGUUA, the “self-splicing fitness (ln)” value (30 °C) is -1.79 ± 0.26 and the “self-splicing fitness (ln)” value (37 °C) is -2.31 ± 0.26.

As to GCAGAGCAAUAUUACGCUGA, the “self-splicing fitness (ln)” value was -2.11 ± 0.29 (30 °C) and -0.433 ± 0.19 (37 °C).

Take GCCAAGCAAUAUUACGCCCU: the “self-splicing fitness (ln)” value runs as follows: (30 °C) -1.4 ± 0.13; (37 °C) -0.504 ± 0.16.

Regarding CAACAGCAAUAUUACGUCAU, the “self-splicing fitness (ln)” value runs as follows: (30 °C) -3.92 ± 0.12; (37 °C) -1.86 ± 0.1.

Turning to CUCCAGCAAUAUUACGCGAA, the “self-splicing fitness (ln)” value is -3.06 ± 0.14 (30 °C) and -1.77 ± 0.16 (37 °C).

Consider CAGGAGCAAUAUUACGCACU, for which the “self-splicing fitness (ln)” value is -2.54 ± 0.5 (30 °C) and -1.2 ± 0.34 (37 °C).

Take CCUCAGCAAUAUUACGGGCA: the “self-splicing fitness (ln)” value (37 °C) was -2.2 ± 0.24.

Regarding AUUCAGCAAUAUUACGUCUU, the “self-splicing fitness (ln)” value reads like this: (30 °C) -0.0261 ± 0.083; (37 °C) 0.411 ± 0.089.

With CUUUAGCAAUAUUACGUAGC, the “self-splicing fitness (ln)” value (37 °C) is -1.6 ± 0.49.

GAACAGCAAUAUUACGCGCC: the “self-splicing fitness (ln)” value by setting is: (30 °C) -0.957 ± 0.13; (37 °C) -0.851 ± 0.15.

Source of the values: the supplement of paper PMC7877785.
